This passage reports stoichiometry N results from article PMC13425845.

Test [1] addresses human γD-crystallin C18S/C32S/C41S/C78S (human). Description: intact protein electrospray mass spectrometry; Bruker Impact II QTOF electrospray mass spectrometer with HPLC; isotopically averaged mass of monomer and dimer samples.
The target in test [2] is human γD-crystallin C18T/C32A/C41A/C78A (human). The description is as above.

With “human γD-crystallin C18S/C32S/C41S/C78S (natural protein)”, the stoichiometry N in test [1] is 2.

Take “human γD-crystallin C18T/C32A/C41A/C78A (natural protein)”: the stoichiometry N in test [2] was 2.
